Target: fibrin (Homo sapiens (Human)) (UniProt P02671)

percent clot digestion (clot weight before and after 2 hours of incubation, in serum, background-corrected): 7.17%
Substance: δ-plasmin (enzyme)
